For test [1], the target named is T1, IL-3Rα, CD123 (interleukin 3 receptor subunit alpha) as expressed on CD123-positive human cancer cell lines … (human, UniProt P26951 20-378).
T1 construct: Target of the flow cytometry on the human cell line MOLM-13 (CD123-positive); NCBI Gene ID 3563; also called IL3RA; IL3R-alpha
T1 sequence: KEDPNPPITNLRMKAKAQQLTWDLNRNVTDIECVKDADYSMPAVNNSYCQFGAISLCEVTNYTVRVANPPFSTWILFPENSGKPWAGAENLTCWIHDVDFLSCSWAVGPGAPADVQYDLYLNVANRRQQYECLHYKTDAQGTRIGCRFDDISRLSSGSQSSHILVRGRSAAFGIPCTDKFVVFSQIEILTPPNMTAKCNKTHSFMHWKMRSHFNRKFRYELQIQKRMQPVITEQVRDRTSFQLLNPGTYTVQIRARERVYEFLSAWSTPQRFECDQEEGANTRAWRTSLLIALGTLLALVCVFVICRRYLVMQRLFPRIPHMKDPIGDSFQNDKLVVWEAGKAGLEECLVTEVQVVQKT
Briefly: flow cytometry on MOLM-13 cells, anti-kappa-FITC secondary antibody. The method, then: (§1) Binding of the anti-CD123 antibodies was examined by flow cytometry using human haematological cell line MOLM-13. To this end, the cells (5×10⁵ cells/well) were incubated in FACS buffer (PBS without Ca/Mg, 3% FCS, Biochrom) with 10 μg/ml primary antibody solution (start concentration) on ice for 30-45 min protected from light. A dose activity curve (1:5 dilution) was plotted. After the incubation, 200 μl of ice-cold FACS buffer were added using a pipette, and the cell suspension was centrifuged at 4° C. 400 g for 4 min. The cell pellet was washed with 300 μl of ice-cold FACS buffer and the pellet obtained was then resuspended in 100 μl FACS buffer and incubated again with secondary antibody (monoclonal anti-kappa light chains-FITC antibody, Sigma, No. SAB4700605) in a 1:10 dilution on ice for 30 min. The cells were then washed with ice-cold FACS buffer and adjusted to a cell concentration of 0.5×10⁶ cell/m1 prior to flow cytometry using a Guava flow cytometer (Millipore). Propidium iodide (final concentration 1 μg/ml) was used for live staining. The results were shown as EC₅₀ values determined based on the dose response curve and efficacy compared to maximal binding.

The target of test [2] is T2, TPP-5521, recombinant IL3Ra aa20-305 (extracellular domain of IL3Ra, R&D Systems) (murine (printed under Origin in Table …, UniProt P26951 20-305)).
T2 construct: Bought antigen; also called soluble IL3Ralpha; IL3Ra protein
T2 sequence: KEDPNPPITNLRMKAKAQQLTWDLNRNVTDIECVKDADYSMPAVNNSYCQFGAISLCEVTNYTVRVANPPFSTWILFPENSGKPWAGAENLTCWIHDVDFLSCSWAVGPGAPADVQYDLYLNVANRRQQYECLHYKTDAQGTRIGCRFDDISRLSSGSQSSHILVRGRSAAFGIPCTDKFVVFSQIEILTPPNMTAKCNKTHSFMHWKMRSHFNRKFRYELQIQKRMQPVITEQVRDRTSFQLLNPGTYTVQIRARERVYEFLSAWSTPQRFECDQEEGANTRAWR
Briefly: SPR (Biacore T200), antibody captured by anti-human Fc, IL3Ra ECD as analyte, 1:1 Langmuir fit, 25 °C. The method, then:
Surface plasmon resonance experiments for quantitative binding analysis were carried out using a Biacore T200 instrument (GE Healthcare Biacore, Inc.). Here the antibodies to be examined were fixed with the aid of an anti-human Fc antibody (“Human Antibody Capture Kit”, BR-1008-39, GE Healthcare Biacore, Inc.) amine-coupled to the sensor chip surface Amine coupling was performed according to the manufacturer's instructions using 1-ethyl-3-(3-dimethylaminopropyl)carbodiimide hydrochloride (EDC), N-hydroxysuccinimide (NHS) and ethanolamine HCl pH 8.5 (“Amine Coupling Kit” BR-1000-50, GE Healthcare Biacore, Inc.). For the analyses, Series S sensor chips CMS (GE Healthcare Biacore, Inc.) were used with the mobile buffer HBS-EP+ (10 mM HEPES pH 7.4, 150 mM NaCl, 3 mM EDTA, 0.05% Surfactant P20). All experimental steps were carried out at 25° C. After fixation of the anti-CD123 antibodies to be examined, injections of the extracellular domain of IL3Ra (analyte, R&D Systems) at concentrations of 100 nM were carried out, and after each antigen injection the sensor surface was regenerated with glycine HCl pH 2.0. Prior to another analyte injection, antibodies were in each case fixed as above, under identical conditions. For all measurements, an upstream flow cell only containing immobilized amine-coupled anti-human Fc antibody was used as reference cell. Evaluation of the sensorgrams obtained was, after double referencing (subtraction of the reference flow cell signal and a buffer injection), carried out by a global fit based on a 1:1 Langmuir binding model with the aid of the Biacore T200 evaluation software (GE Healthcare Biacore, Inc.).
In general terms: SPR reads the build-up and loss of mass on a sensor chip optically.

Test [3] concerns the target T1, IL-3Rα, CD123 (interleukin 3 receptor …). Nature of the test: flow cytometry on MOLM-13 cells. The method, then: as §1

Usually EC50 stands for the concentration giving half of the maximal effect. Broadly, the Kd is the concentration at which binding is half-saturated.

B1: TPP-6013 (antibody, human IgG1, kappa, V domains shown)
VH: QVQLQESGPGLVKPSQSLSLTCSVTDYSITSGYYWNWIRQFPGNKLEWMGYISYDGSNNYNPSLKNRISITRDTSKNQFFLKLSSVTTEDTATYYCSRGEGFYFDSWGQGTTLTVSS
VL: DIMMSQSPSSLAVSVGEKFTMTCKSSQSLFFGSTQKNYLAWYQQKPGQSPKLLIYWASTRESGVPDRFTGSGSGTDFTLAISSVMPEDLAVYYCQQYYNYPWTFGGGTKLEIKR
notes: Chimeric antibody: murine 12F1 variable domains with human IgG1 kappa constant regions; also called antiCD123-12F1-hIgG1Kappa; chimeric variant of 12F1
B1: in test [1], it took 2 nM to reach a half-maximal effect (EC50) and the “Efficacy [%] (compared to maximal binding)” value (from here on “Efficacy [%]”) amounted to 100%. The Kd in test [2] is 0.8 nM.

B2: TPP-8617 (antibody, human IgG1, kappa, V domains shown)
VH: EVQLVQSGAEVKKPGESLKISCKGSDYSITSGYYWNWVRQMPGKGLEWMGYISYDGSNNYNPSLKNGQVTISADKSISTAYLQWSSLKASDTAMYYCSRGEGFYFDSWGQGTLVTVSS
VL: DIMMSQSPSSLAVSVGEKFTMTCKSSQSLFFGSTQKNYLAWYQQKPGQSPKLLIYWASTRESGVPDRFTGSGSGTDFTLAISSVMPEDLAVYYCQQYYNYPWTFGGGTKLEIKR
notes: Humanized 12F1 graft on IGKV4-1 / IGHV5-51; also called Hum-TPP6013-17
Turning to B2, in test [1], the EC50 was 1.4 nM and the “Efficacy [%]” value was found to be 100%.

B3: TPP-5969 (antibody, human IgG1, kappa, V domains shown)
VH: QVQLVQSGAEVKKPGSSVKVSCKASGGTFSDYYMKWVRQAPGQGLEWMGDIIPSNGATFYAQKFQGRVTITADESTSTAYMELSSLRSEDTAVYYCARSHLLRASWFAYWGQGTLVTVSS
VL: DIVMTQSPDSLAVSLGERATINCESSQSLLNSGNQKNYLTWYQQKPGQPPKLLIYWASTRESGVPDRFSGSGSGTDFTLTISSLQAEDVAVYYCQNDYSYPYTFGQGTKLEIKR
notes: Humanized version of murine 7G3, human IgG1 kappa; also called HU7G3-4-hIgG1Kappa
On to B3, for which, in test [1], the concentration giving a half-maximal response (EC50) is 5.3 nM and the “Efficacy [%]” value was determined as 34%.

B4: TPP-9476 (antibody, human IgG1, kappa, V domains shown)
VH: QVQLVQSGAEVKKPGSSVKVSCKASGGTFSDYYMKWVRQAPGQGLEWMGDIIPSNGATFYNQKFKGRVTITADESTSTAYMELSSLRSEDTAVYYCARSHLLRASWFAYWGQGTLVTVSS
VL: DIVMTQSPDSLAVSLGERATINCESSQSVLNSGNQKNYLTWYQQKPGQPPKLLIYWASTRESGVPDRFSGSGSGTDFTLTISSLQAEDVAVYYCQNDYSYPYTFGQGTKLEIKR
notes: Humanized and germlined variant of 7G3, human IgG1 kappa
For B4, in test [1], the EC50 came to 2.8 nM and the “Efficacy [%]” value stood at 100%. Also, the Kd in test [2] was 7.2 nM.

B5: TPP-8695 (antibody, human IgG1, kappa, V domains shown)
VH: QVQLVQSGAEVKKPGSSVKVSCKASGGTFSDYYMKWVRQAPGQGLEWMGDIIPSNGATFYNQKFKGQVTITADESTSTAYMELSSLRSEDTAVYYCARSHLLRASWFAYWGQGTLVTVSS
VL: DIVMTQSPDSLAVSLGERATINCESSQSLLNSGNQKNYLTWYQQKPGQPPKLLIYWASTRESGVPDRFSGSGSGTDFTLTISSLQAEDVAVYYCQNDYSYPYTFGQGTKLEIKR
notes: also called Variant4-hIgG1kappa
In the case of B5, in test [1], the EC50 was 1.12 nM and the “Efficacy [%]” value turned out to be 36%.

B6: TPP-8987 (antibody, human IgG1, kappa, V domains shown)
VH: QVQLVQSGAEVKKPGSSVKVSCKASGGTFSDYYMKWVRQAPGQGLEWMGDIIPSNGATFYNQKFKGQVTITADESTSTAYMELSSLRSEDTAVYYCARSHLLRASWFAYWGQGTLVTVSS
VL: DIVMTQSPDSLAVSLGERATINCESSQSVLNSGNQKNYLTWYQQKPGQPPKLLIYWASTRESGVPDRFSGSGSGTDFTLTISSLQAEDVAVYYCQNDYSYPYTFGQGTKLEIKR
notes: as for B4
B6: in test [1], the concentration giving a half-maximal response (EC50) came to 3.2 nM and the “Efficacy [%]” value came to 100%. Further, the Kd in test [2] worked out at 1.24 nM.

B7: TPP-8988 (antibody, human IgG1, kappa, V domains shown)
VH: EVQLLESGGGLVQPGGSLRLSCAVSDYSITSGYYWNWIRQAPGKKLEWMGYISYDGSNNYNPSLKNGRITISRDTSKNTFYLQMNSLRAEDTAVYYCARGEGFYFDSWGQGTLVTVSS
VL: EIVLTQSPGTLSLSPGERATLSCKSSQSLFFGSTQKNYLAWYQQKPGQAPRLLIYWASTRESGIPDRFSGSGSGTDFTLTISRLEPEDFAVYYCQQYYNYPWTFGQGTKLEIKR
notes: Humanized variant of 12F1 (IGKV3-20 / IGHV3-66 frameworks), human IgG1 kappa
As to B7, in test [1], the EC50 amounted to 1.9 nM and the “Efficacy [%]” value stood at 100%. In addition, the Kd in test [2] was 0.33 nM.

B8: TPP-9129 (antibody, human IgG1, kappa, V domains shown)
VH: EVQLLESGGGLVQPGGSLRLSCAVSDYSITSGYYWNWIRQAPGKKLEWMGYISYDGSNNYNPSLKNGRITISRDTSKNTFYLQMNSLRAEDTAVYYCARGEGFYFDSWGQGTLVTVSS
VL: EIVLTQSPGTLSLSPGERATLSCRASQSVSSSYLAWYQQKPGQAPRLLIYWASTRESGIPDRFSGSGSGTDFTLTISRLEPEDFAVYYCQQYYNYPWTFGQGTKLEIKR
As for B8, the binding result in test [3] was “no binding (tested: 10 µg/ml (start concentration))”.

B9: TPP-9130 (antibody, human IgG1, kappa, V domains shown)
VH: EVQLLESGGGLVQPGGSLRLSCAVSDYSITSGYYWNWIRQAPGKKLEWMGYISYDGSNNYNPSLKNGRITISRDTSKNTFYLQMNSLRAEDTAVYYCARGEGFYFDSWGQGTLVTVSS
VL: EIVLTQSPGTLSLSPGERATLSCKSSQSLFFGSTQKNYLAWYQQKPGQAPRLLIYGASSRATGIPDRFSGSGSGTDFTLTISRLEPEDFAVYYCQQYYNYPWTFGQGTKLEIKR
B9: in test [1], the concentration for a half-maximal effect (EC50) is 3.01 nM and the “Efficacy [%]” value was 100%.

B10: TPP-9078 (antibody, human IgG1, kappa, V domains shown)
VH: EVQLLESGGGLVQPGGSLRLSCAVSDYSITSGYYWNWIRQAPGKKLEWVGYISYDGSNNYNPSLKNGRITISRDTSKNTFYLQMNSLRAEDTAVYYCARGEGFYFDSWGQGTLVTVSS
VL: EIVLTQSPGTLSLSPGERATLSCKSSQSLFFGSTQKNYLAWYQQKPGQAPRLLIYWASTRESGIPDRFSGSGSGTDFTLTISRLEPEDFAVYYCQQYYNYPWTFGQGTKLEIKR
For B10, in test [3], the binding result is “no binding (tested: 10 µg/ml (start concentration))”.

B11: TPP-9104 (antibody, human IgG1, kappa, V domains shown)
VH: EVQLLESGGGLVQPGGSLRLSCAVSDYSITSNYYWNWIRQAPGKKLEWMGYISYDGSNNYNPSLKNGRITISRDTSKNTFYLQMNSLRAEDTAVYYCARGEGFYFDSWGQGTLVTVSS
VL: EIVLTQSPGTLSLSPGERATLSCKSSQSLFFGSTQKNYLAWYQQKPGQAPRLLIYWASTRESGIPDRFSGSGSGTDFTLTISRLEPEDFAVYYCQQYYNYPWTFGQGTKLEIKR
Take B11: in test [1], a half-maximal effect (EC50) was put at 25.3 nM and the “Efficacy [%]” value was found to be 83%.

B12: TPP-9075 (antibody, human IgG1, kappa, V domains shown)
VH: EVQLLESGGGLVQPGGSLRLSCAVSDYSITSGYYSNWIRQAPGKKLEWMGYISYDGSNNYNPSLKNGRITISRDTSKNTFYLQMNSLRAEDTAVYYCARGEGFYFDSWGQGTLVTVSS
VL: EIVLTQSPGTLSLSPGERATLSCKSSQSLFFGSTQKNYLAWYQQKPGQAPRLLIYWASTRESGIPDRFSGSGSGTDFTLTISRLEPEDFAVYYCQQYYNYPWTFGQGTKLEIKR
Consider B12, for which, in test [1], a half-maximal response (EC50) required 5.37 nM and the “Efficacy [%]” value is 100%.

The record behind these values is patent US20190330357A1 (Bayer, published 2019).
